For data set [1], the target named is T1, ctPan2 Δ343–375 (PID deletion in full-length ctPan2) (Chaetomium thermophilum, UniProt G0SAK8 1-1170, Δ343–375).
T1 sequence (looked up): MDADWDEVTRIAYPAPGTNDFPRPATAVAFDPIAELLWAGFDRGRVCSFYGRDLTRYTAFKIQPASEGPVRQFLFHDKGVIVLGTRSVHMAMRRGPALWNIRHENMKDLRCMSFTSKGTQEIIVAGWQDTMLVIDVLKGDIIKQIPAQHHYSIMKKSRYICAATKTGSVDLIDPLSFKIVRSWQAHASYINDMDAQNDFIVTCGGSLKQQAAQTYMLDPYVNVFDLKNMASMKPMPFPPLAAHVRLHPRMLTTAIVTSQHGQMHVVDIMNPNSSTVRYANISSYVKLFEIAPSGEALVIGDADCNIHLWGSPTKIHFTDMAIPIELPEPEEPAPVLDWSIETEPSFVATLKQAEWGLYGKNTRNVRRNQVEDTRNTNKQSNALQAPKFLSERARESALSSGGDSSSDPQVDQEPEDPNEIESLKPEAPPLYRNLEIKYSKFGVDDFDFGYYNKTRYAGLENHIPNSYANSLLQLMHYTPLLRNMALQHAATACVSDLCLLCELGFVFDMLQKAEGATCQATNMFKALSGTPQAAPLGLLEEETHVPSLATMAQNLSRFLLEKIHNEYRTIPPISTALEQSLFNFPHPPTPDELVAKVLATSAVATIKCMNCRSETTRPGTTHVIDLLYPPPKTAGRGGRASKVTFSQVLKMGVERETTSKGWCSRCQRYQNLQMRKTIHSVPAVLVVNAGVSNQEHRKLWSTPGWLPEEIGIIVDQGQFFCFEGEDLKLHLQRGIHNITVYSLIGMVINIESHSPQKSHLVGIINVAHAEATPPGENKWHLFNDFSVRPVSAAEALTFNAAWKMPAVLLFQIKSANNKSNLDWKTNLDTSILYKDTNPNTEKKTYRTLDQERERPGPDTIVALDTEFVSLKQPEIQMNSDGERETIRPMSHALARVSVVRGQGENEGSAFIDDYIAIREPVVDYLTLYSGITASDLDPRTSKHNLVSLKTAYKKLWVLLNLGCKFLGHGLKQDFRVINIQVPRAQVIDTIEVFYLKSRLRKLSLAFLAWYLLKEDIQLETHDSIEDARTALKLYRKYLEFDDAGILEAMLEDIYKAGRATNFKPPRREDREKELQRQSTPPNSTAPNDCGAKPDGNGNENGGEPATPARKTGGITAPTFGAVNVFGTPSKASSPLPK
In words: SEC; separately purified ctPan2 constructs and ctPan3 PKC dimer mixed 1:1 at 1 μM, 15 min at room temperature; Superdex 200 Increase 3.2/300 in 20 mM Tris pH 8.0, 500 mM NaCl, 2 mM TCEP; fractions on SDS–PAGE. The following applies: both partners purified. For orientation: In gel filtration, larger molecules generally elute earlier.

Data set [2] deals with the molecule itself. In words: crystal structure; ctPan3 PKC bound to ctPan2 343–458, P21 symmetry, two copies of the complex in the asymmetric unit, molecular replacement.

B1: ctPan3 pseudokinase/C-terminal domain (PKC, residues 205–640), purified from E. coli (domain or fragment, Chaetomium thermophilum, UniProt G0S0Y3 205-640, looked up)
chain: RQELQPWQRATYDFFMPQNLREDLQKKQFATLQVIPNSGLPQLEHWHSLVPLDTSNRKNTSCFGYPSWVYKAQNSRNGRHYALRRLEGYRLTNEKAILNVMKDWKKIKNASIVTIHEVFTTREFGDSSLIFAYDFHPLSKTLQEHHFQPIHGNRYRPPPAVPENTIWGYICQIANALKTIHSNRLAARCLEPSKIILTDINRIRLSACAILDVVQFGMNSRSVVELQQEDFVKFGKLILSLATGTLPAHLNNIPAALETLGNKYSANLKSAVNWLLDTSSGETKTIEHFMTGIASQMTTFFDLALQDNDEKLFHLAREVENGRIARSLMKLLTILERGDYDGVPSWSETGDRYQLKLFRDYVFHRVDADGKPNLSIGHMLTCMSKLEAGVDENILLTSRDNETVFVLSYRELRQMYDRAFNELVKASKTGAPGANT
notes: Pan3, Chaetomium thermophilum, pseudokinase (242-497), coiled coil (499-538) and C-terminal domain (555-640), construct residues 205-640; The crystals of ctPan3 PKC alone (PDB 4CYI) were of Se-Met-labelled protein; also called ctPan3 PKC; ctPan3 PKC dimer; source: E. coli, purified (glutathione Sepharose)
As for B1, the binding result in data set [1] and in data set [2] was “binds” throughout.
